Reference: paper PMC3606566, “Structure of Pseudomonas aeruginosa inosine 5′-monophosphate dehydrogenase” (Acta Crystallographica Section F: Structural Biology and …, 2013)

Target: the molecule itself
Assay: crystal structure; apo PaIMPDH, sitting-drop vapour diffusion, 0.2 M sodium acetate pH 4.5, 40% MPD, room temperature; space group I4, one subunit in the asymmetric unit, tetramer by the crystallographic fourfold axis; 2.25 Å

B1: Pseudomonas aeruginosa inosine 5′-monophosphate dehydrogenase (enzyme, UniProt Q9HXM5 1-489, looked up)
chain: MLRISQEALTFDDVLLIPGYSEVLPKDVSLKTRLTRGIELNIPLVSAAMDTVTEARLAIAMAQEGGIGIIHKNMGIEQQAAEVRKVKKHETAIVRDPVTVTPSTKIIELLQMAREYGFSGFPVVEQGELVGIVTGRDLRVKPNAGDTVAAIMTPKDKLVTAREGTPLEEMKAKLYENRIEKMLVVDENFYLRGLVTFRDIEKAKTYPLASKDEQGRLRVGAAVGTGADTGERVAALVAAGVDVVVVDTAHGHSKGVIERVRWVKQTFPDVQVIGGNIATAEAAKALAEAGADAVKVGIGPGSICTTRIVAGVGVPQISAIANVAAALEGTGVPLIADGGIRFSGDLAKAMVAGAYCVMMGSMFAGTEEAPGEIELFQGRSYKSYRGMGSLGAMSGSQGSSDRYFQDASAGAEKLVPEGIEGRVPYKGALSAIVHQLMGGLRAAMGYTGSADIQQMRTQPQFVRITGAGMAESHVHDVQITKEAPNYRVG
notes: Inosine 5′-monophosphate dehydrogenase of Pseudomonas aeruginosa, full-length gene PA3770, amino acids 1-489, synthesised and codon-optimised for E. coli; Modified pET15b: N-terminal His tag followed by a TEV protease cleavage site; The His tag was still present at size-exclusion chromatography; The model holds only residues 1-91, 205-370 and 426-467; also called PaIMPDH; IMPDH; not shown: His …
stoichiometry N: 4
